Format in all cases: physicochemical
The nature of series [1]: Stability of lyophilized formulations of motilin-like peptide, reconstituted in water (HPLC). The settings on record: 30 μg/ml in 10 mM citrate buffer, 1% w/v sucrose, pH 6.0, lyophilized, stored in 20 ml vial at 40° C. for several months (FIG. 5). How it is done:
The motilin-like peptide including SEQ ID NO.: 1 was dissolved at a concentration of 30 μg/ml in 10 mM citrate buffer and 1% w/v of sucrose (bulking agent) at pH 6.0. The composition was lyophilized by standard techniques and stored in a 20 ml vial at 40° C. The potency of the motilin-like peptide was measured at the time intervals indicated in FIG. 5, by reconstituting the composition in water. Potency was determined by using HPLC to measure the amount of undegraded peptide remaining in each sample. […] (Again, it will be appreciated by those skilled in the art that the stability of pharmaceutical compositions at elevated temperatures, such as 40° C. as in FIG. 5, may serve as the basis of prediction of stability for longer periods at more typical storage temperatures, such as approximately 20° C.-25° C. or 4° C.-8° C., for example).

Series [2] is described as follows: Storage stability of aqueous buffered composition in Schott Type 1 vials. An excerpt: Some plastics have also proven to be effective in assisting in the stabilization of the peptide composition. In this regard, preferred plastics are cyclic olefin copolymers, available, for example, from West Pharmaceuticals under the product name CZ resin vials, or from Schott under the product name TopPac vials, or from Alcan packaging under the product name Ticona Topas serum vials. The compositions of the present invention may also be stored in PVC, as well as non-PVC flexible bags. When stored in the above described glass or plastic containers, the above-described storage times at the above-described storage temperatures can be achieved, although for storage periods of at least 18 months, Type I Plus (vapor treated silicon) vials and Type I Plus glass ampules are preferred. […] It will be appreciated by those skilled in the art that the measured stability of pharmaceutical compositions at elevated temperatures, such as 40° C. or higher, may serve as the basis of prediction of stability for longer periods at more typical storage temperatures, such as 20°-25° C. or 4°-8° C., for example. Such “accelerated storage” studies are common in the field of the present invention.

A short description of series [3]: Stability of motilin-like peptide following autoclaving and storage (HPLC, undegraded peptide remaining). The note with it: 30 μg/ml in 10 mM sodium acetate buffer pH 5.0, Type I glass vials, autoclaved 121° C. 15 minutes, storage 3 months at 55° C. (FIG. 2). An excerpt: A further advantage of the pharmaceutical composition of the present invention is its peptide stability when the composition is subjected to elevated temperatures such as the temperature of steam sterilization. Many peptides are inherently unstable and, when subjected to heat, are known to degrade very rapidly, typically in a few minutes or less. In contrast, in compositions of the present invention, the peptide substantially retains its stability (i.e., remains substantially undegraded and retains a substantial percentage of its initial potency), even after the composition is (1) subjected to steam sterilization (for at least 10 minutes and up to 60 minutes at temperatures of approximately 100° C.-128° C. and typically 121° C.), and (2) subsequently stored in a suitable container (described below) at lower temperatures typically encountered by a pharmaceutical composition, such as about 4° C.-5° C. to about 25° C.
The motilin-like peptide of SEQ ID NO.: 1 was dissolved at a concentration of 30 μg/ml in 10 mM sodium acetate buffer, pH 5.0. […] The potency of the peptide following storage at each temperature was measured over time by testing samples after incubation of one week, two weeks, three weeks, one month and three months. Potency was determined by using HPLC to measure the amount of undegraded peptide remaining in each sample. […]

A short description of series [4]: Long-term storage stability of the aqueous buffered composition. The note with it: pH between approximately 3 and 9, preferably 4.8-5.2. How it is done: The aqueous pharmaceutical compositions of the present invention provides benefits previously unknown. The motilin-like peptide of pharmaceutical compositions of the present invention remains stable when stored over a wide range of temperatures for extended periods of time. For example, when stored at room temperature or its preferred lower storage temperature of 4° C.-5° C., substantial stability is maintained for significant periods of time. For example, at a storage temperature of approximately 25° C., the peptide contained in the composition of the present invention remains stable for at least 12 months, and more preferably at least approximately 18 months and, even more preferably, up to and even beyond approximately 24 months, retaining a potency of 90% or more as shown, for example, in FIG. 1. At a storage temperature of 5° C., storage with only marginal degradation (and a potency of at least 90-95%) of up to at least 18 months is regularly observed.
Whether prepared and stored as an aqueous unbuffered solution, an aqueous buffered solution, a ready-to-use or concentrated, or a lyophilized composition that is subsequently reconstituted, the pharmaceutical compositions of the present invention remains potent during storage for extended periods of time. […]

Square brackets hold non-standard residues; d marks the D form.

Regarding “(Me3N)^+Phe-Val-Pro-Ile-Phe-Thr-Tyr-Gly-Glu-Leu-Gln-D-Arg-Leu-Lys-NH2 ({N,N,N‑trimethyl}-FVPIFTYGELQ[dR]LK-NH2) [SEQ ID NO.: 1, synthetic motilin-like peptide receptor agonist]”, the “potency retained (undegraded peptide remaining by HPLC)” value in series [1] and in series [3] was “greater than 90%” in each case. In addition, the “stability (maintenance of potency)” value in series [2] (30 μg/ml, several months at 5° C. to 55° C. (FIG. 4)) is reported as “demonstrated stability”; in series [2] (approximately 5 μg/ml, several months at 5° C. to 55° C. (FIG. 3)) it was “demonstrated stability”. The degradation during storage result in series [4] was “only minimal degradation”.

Source of the values: US20060287243A1, “Stable pharmaceutical compositions including motilin-like peptides” (priority 2005, published 2006).
